Laboratory results reported in the DeepSol protein solubility set.

experiment: soluble on expression in E. coli; label from the status in PepcDB or PDB records

Sequence	soluble on expression in E. coli
MIDSANRADVFLRKPAPVAPELQHEVEQFYYWEAKLLNDRRFEEWFALLAEDIHYFMPIRTTRIMRDSRLEYSGSREYAHFDDDATMMKGRLRKITSDVSWSENPASRTRHLVSNVMIVGAEAEGEYEISSAFIVYRNRLERQLDIFAGERRDTLRRNTSEAGFEIVNRTILIDQSTILANNLSFFF	soluble
MSKPGRTILASKVAETFNTEIINNVEEYKKTHNGQGPLLVGFLANNDPAAKMYATWTQKTSESMGFRYDLRVIEDKDFLEEAIIQANGDDSVNGIMVYFPVFGNAQDQYLQQVVCKEKDVEGLNHVYYQNLYHNVRYLDKENRLKSILPCTPLAIVKILEFLKIYNNLLPEGNRLYGKKCIVINRSEIVGRPLAALLANDGATVYSVDVNNIQKFTRGESLKLNKHHVEDLGEYSEDLLKKCSLDSDVVITGVPSENYKFPTEYIKEGAVCINFACTKNFSDDVKEKASLYVPMTGKVTIAMLLRNMLRLVRNVELSKEK	soluble
MTLIILEGPDCCFKSTVAAKLSKELKYPIIKGSSFELAKSGNEKLFEHFNKLADEDNVIIDRFVYSNLVYAKKFKDYSILTERQLRFIEDKIKAKAKVVYLHADPSVIKKRLRVRGDEYIEGKDIDSILELYREVMSNAGLHTYSWDTGQWSSDEIAKDIIFLVELEHHHHHH	soluble
GDSQDFSSSQSTSPVVHHRPIDQIALSTFEDTTPLKTDEVEQAWEHTQITYVDLRTGAHLGSGAERLARASLSLSKLYIADYVFDHGTQKEKEQAVEMIRKSDDDIADKLFDAYPNCIDSVAKKYQLEATQTYGRWG	not soluble
SDPRRNFQPGGYDSRNTFTSGSFGPPDFGESDEAELVSVSWNQDYSCFAAGTSHGFRIYNCEPFKETFRRELKDGGFKIVEMLFRSNILALVGGGPNSQYPSNKVLIWDDHQGRCISEFTFRSEIRAVKLRRDRIVVVLEHKIYVYNFMDLRLLHQIENMANPRGLCCLSHHMNTSVLACPGIRRGEVRVEHFGLNMVQIINAHDSNIACMTLTLDGLLLATASTKGTLIRIFNTMDGTRLQEVRRGVDRADIYSIALSPNVQWLAVSSDKGTVHIFSLRVRVIGEDAYSTEHETSSNSLQPLVSPASGANPGSSLSFLRGVLPKYFSSEWSFSQFHVPEVTQYFAAFGAQNTIAIIGLDGSFYRCNFDPVNGGEMTQLEHFHFLKQDSPR	soluble
MSLSTIREVAKLANVSIATVSRVLNNDTKYKMTEETKNRVLDAVTQLNYIPITTPRKKMTVTNSNICKDAKIGCILRVTKKGYNDPYYMSILAGVETQLREVGIELSFIKSAPILQDKSHLASTFSDSLDGLILMEPLNEDIYHYIKKRVPHVVGIDTLRDDIDDVGYDHLENGILATQHLIEKGHKEIGFIGGSGESQDIKDSKRYQGYVIAMHKAGLPIQKKWIIDCGWNEDECVAKVDALCKSNHYPTAFFAASDLMAMAAMKSFYTNGISVPKRVAVIGMSDIEMSQYSNPPLTTYHVPKEEIGRVATNLLLARIQGYETLPQKIILPTTFVERSSTEGHHHHHH	soluble
MGNTSSERSGGEKTHRRESRSGKDGTRPKILMDSAEDGDLFQSDDAKEFLAWRQDQESDSKTPLEERPTVFRWKGPGKEIYLSGSFNNWATKIPLNKSHNNFVAIIDLPEGEHQYKFYVDGHWTLDPKEPVVTNKSGVVNNVIKVRKTDFEVFDALKTDSEKCADMSDLSSSPPGPYHQDPYSTKSEDKLRSPPILPPHLLQVLLNKDTGISCDPTLLPEPNHVMLNHLYALSIKDGVMVLSATHRYKKKYVTTLLYKPI	not soluble
MSLKTLLPTSTAGSLPKPSWLAQPEKLWSPWKLQDEELIEGKRDALRLSLNDQQQAGIDIVSDGEQTRQHFVTTFIEHLSGVDFEKRETVRIRNRYDASVPTVVGAVSREKPVFVEDAKFLRQQTRQPIKWALPGPMTMIDTLYDSHYKSREKLAWEFAKILNQEARELEAAGVDIIQFDEPAFNVFFDEVNDWGVATLEKAIEGLKCETAVHICYGYGIKANTDWKKTLGSEWRQYEEAFPKLQKSNIDLISLECHNSRVPMDLIELIRGKKVMVGAIDVATSAIETPEEVADTLRKALRFVDADKLYPCTNCGMAPLSRQVARSKLNALGAGAEIIRRELSVEGHHHHHH	soluble
MSLQIKSIKAYHVVQPFVDGPYRMSKGRQADAFDAVIVAITADSGLTGWGEMAPLGNFYSAAFPAGARAGVPEIAPHLIGHDPRGLASIGRLMDTVFKGHPYIKSALDMACWDLAARAAGVPLVTMLGGRESDMAETYRVVTHGTLDQMAALAKRIIAEGCRRLQVKVGGNVHDDIERVTTVASAVPKGTVIFCDANAGWTPYQARQFADATRGIDYTFEQPCTTIEENMSVRRMLDKPMVLDESVTSLEEMLEIHRLGAADGLTLKISRLGGVTRTRQIRDVAVDLGFMITVEDTGGAEIDTAAMAHLSLSTPQERRLHAIAFHEWVTVRTAFNAPPVTGSHMGIPDGPGLGIDVDPSLLGKPFFEIGEGHHHHHH	soluble
MGSDKIHHHHHHMSTPSPALFFNTVNAYQRSAAIKAAVELNVFTAISQGIESSQSLAQKCQTSERGMRMLCDYLVIIGFMTKQAEGYRLTSDSAMFLDRQSKFYVGDAIEFLLSPMITNGFNDLTAAVLKGGTAISSEGTLSPEHPVWVQFAKAMSPMMANPAQLIAQLVNENKIEPLKVLDISASHGLFGIAVAQHNPNAEIFGVDWASVLEVAKENARIQGVASRYHTIAGSAFEVDYGNDYDLVLLPNFLHHFDVATCEQLLRKIKTALAVEGKVIVFDFIPNSDRITPPDAAAFSLVMLATTPNGDAYTFAEYESMFSNAGFSHSQLHSLPTTQQQVIVAYK	not soluble
MKTLLEVKDLQVSFDTHAGEVQAVRGVTFDLKKGETLAIVGESGSGKSVTSKALMGLIPNPPGRIKNGEIVFEGRDLTKLTEKEMQQVRGKDIAMIFQDPMTSLNPTMTIGNQIMEGLIKHQGMSKADARKVALELIDLVGIPNPEARLKQYPHQFSGGMRQRVVIAMALACNPKLLIADEPTTALDVTIQAQILELMKDIQQKTEAAIIFITHDLGVVANVADRVAVMYAGKVVEIGTVDEIFYNPKHPYTWGLIASMPSLDGSEEELYAIPGTPPDLLKPPKGDAFAPRNPQALKIDFEMDPPLFKVSDTHYAATWLLHEQAPEVRPPAVVEKRILQMKAGEQHD	not soluble
ALEGTEFARAQLSEAMTLASGLKTKVSDIFSQDGSCPANTAATAGIEKDTDINGKYVAKVTTGGTAAASGGCTIVATMKASDVATPLRGKTLTLTLGNADKGSYTWACTSNADNKYLPKTCQTATTTTP	soluble
MRTQTFPPSSSSSRTTHPKKNRHSSNSSSMALVTPAKSSTGAAPKQSSQSGWDYWTRVYSDDAQTTGTPRDVRISDMLSSESLIRAKLLFLNVPSLPSAHKNIILNLVKRELNHDISIQDVVVVPPAKWFLNFYRPEDALKVMKHLNGYSYRGHILAVRFCYPDGTYGDESALTELVQCTNSAKGRILEKKDIVQDTFAVECWTKTEFDSLKVFEKELTNLLKAHAYLPYHTVLQSMRNLFTCKVQSELSSMFISDALAQWPTGLIRIFNRNVKVVSNTMCLSSSSYYTQRIHDSALEGGCSVHRNSWEPTVPDDIRSEVQLIQYTNSFLGHFGPQNIDVDIPIRILAQSLRGTWPKTGPKLAALLTEISSGFVLINRVLYLSSNLHHHEKIIDNLACFQDDCTDVYFLPLSCTTEDQKGKTVDYEDI	not soluble
MSLSEAGHKFLAKLGKKRLRPGGKRATDWLIAEGGFSKEKRILEVACNRGTTAIELAQRFGCKITAVDMDAQALEVAKKSAGTAGVAHLISFERANAMKLPYQDASFDIVINEAMLTMQADQAKKKCVMEYLRVLKPGGLLLTHDVLLKEAKESIRQELSQAIHVNVGPLTQDGWEQVMIESGYCDVKALTGEMTLMKLSGMIYDEGLLGTLKICVNACKKENRKQFLTMYKMFAKNKQKLGFIAMASYKSSEGHHHHHH	soluble
MGNWITSTFLRFDLFQRHQPNRFLEYTRVQHSNQSPAYSVRTAAEIVAHQRMKPNHSNDSDTDFSSDDEGCPKMTPHEEQQMFEREQHIAFSGRCHIGDPESCTQLRNEINSRCGPRPSTSNNMEFILNRDLQKRGTSISNPRTVARVLNSHLPNQKRRVDRVATKSFCTQYIQNGTKIVVASQDEKIRFYQRNPDKSKYRSKYMKSDELRVDQCGWSILDTAISLNGDLIAYGTWKDAVFVGKLDFTERQNITWFPIDLNGEPGRDHCAVFCVKFSDSSEQIVCGTSQYSIHVFDVEQRRRIRTIVNAHEDDVNSVCFADLGSNLIYSAGDDGLVKVWDKRAWSDGDVEPVGVFAGHRDGVTHVDSRQDERYLLSNSKDQTIKVWDLRKFSNMSGVEATRACVQSQHWDYRWQPAPPGLCQPVAGDTSVMTLRGHSVLHTLVRANFSPESTGRRYIYTGCARGEVVVYDIMSGTVSRRLKGHTAVVRECDWHPTENEIVSSAWDGVTTVWTWDERQEGVIAPYDHPNISQFGDEDSCDELFQPVKKQCRRQRKTMSSRGHPCSSSSISQN	not soluble
MKANRWFGMAQPKSGKMNMNILHQEELIAQKKREIEARMEQKARQSHVPSPQPPHPGEIADAHNSCISNKFANDGSFLQQFLKLQKAQTSTDSAPRAPPSMPTPSSLKKPLVLSKRTGLGLSSPTGPVKNYSHAKQLPVAHRPSVFQSPDDDEEEDYEQWLEIKVSPPEGAETRRVIEKLARFVAEGGPELEKVAMEDYKDNPAFTFLHDKNSREFLYYRRKVAEIRKEAQKPQAATQKVSPPEDEEAKNLAEKLARFIADGGPEVETIALQNNRENQAFSFLYDPNSQGYRYYRQKLDEFRKAKAGSTGSFPAPAPNPSLRRKSAPEALSGAVPPITACPTPVAPAPAVNPTPSIPGKPTATAAVKRKRKSRWGPEEDKVEFHLLNWHRGT	soluble
MKLSPVSAAVLSVLAAGFAHAETEPSHYEEVVVTANRIEQPLSEVAGSVAVLEGETLEKQGKTELYDALNQEPGVSVTGGAGRPQNITIRGMTGNRIAIVRDGIQSADGYGAADINDKYGRNTFSLSNVKQIQVVKGASSTLYGSGAIGGVVIIESKAPEDYLYHRDYYVDAALTYSGISNRYQGNHALAMRHGDGEALLTIDYWQGEETRNFNQDLYNREVDGYNLGFSHHYWLNDALRLKTHLEYFDDYAKRREGTSSIQKDDKWDLVSFYEYQRSQTRLASVGADYTANLSWMDTLEGKFYWRSTENITQTNRLMANDRSGAGILSYRRELRDEGFNDEALGATLNAQKEWQQGEWLHQFAYGMSVDGHDYQRPKSIRRMESSGDDLQADEPFAPAREYRFGVYGQDNLLLGDWTLAAGLRFDAQKLSPKNTDRIHGYKVVTMGSSEWSPSASISYQWHPEWNTYLSYNHGFRAPSYDKAYGASDHSFVPLTPFIIKPNNKLRAETSDSFELGSKYDNGQTQFYVAVFYSIFDNFIDVKQVGYDNATGSVIQQYQNIAGVKTYGAEMSVMHRLDDRWSVENKLGYVDGKDGENQYVRTLTPLEGSVQLNYQRERWDAYSRLNWASAMSRVPTCTTEQGKETECATTTGWVSWDIGLNYQWNAQLSASFNVVNLLDREYTRYQDVAGVTPSDTLYSTEPGRYFTVHAKYVF	not soluble
MKSLIDHFDIASAKVQSLVQETLHHADDGELYLEYTESETLLFDNRQLKNGSFHQDMGFGLRVVAGEATGYAHSSELSAAALKRASEAAKTVTYKNHAGPYSVAPQQTNKKLYQPHNPLNAPSFEEKSALLQKIDDYLRAKNDKLHQVTVSLSGSLQHVEILRADGNLVRDIRPLVRLSISVVAAEGNRRENGFYGCGGRQAFSQFISEENWKKAADEALRMALINLEAEAAPAGTFDVVLANGWPGVMLHEAVGHGLEGDFNRKKTSAFSGLLGQQVAAKGVTVVDDGTIPKCRGSLTIDDEGTPSGYNILIENGKLVGFMQDRLNARLMGVNPTGNGRRESYAYAPMPRMTNTIMLGGDKTPEEILSSLKSGIYAVSFGGGQVDITSGKFVFECTEAYRVENGKIVAPIKGATLIGNGPEAMKRITMIGNDSKLDNGIGTCGKAGQSVPVGVGQPHLRINNMTIGGTELT	not soluble
